This is an account of results in PMC3158780.

This experiment deals with insoluble type I collagen (UniProt P02453). The experiment in a line: co-sedimentation; batch binding to 5 mg insoluble substrate; protein 15 µg/ml in 80 µl buffer A (50 mM Tris-HCl, 10 mM CaCl2, 3 M NaCl, pH 8.0), 0°C, 60 min; supernatant after centrifugation on SDS-PAGE.

“isolated CTE domain of SptA (CTE*) (domain or fragment)” displayed a percent bound of 50%.
